# Assay: yeast display, Sf9 membrane polyspecificity reagent, FACS + sequencing; frameworks hold sequencing errors
# Summary of the method: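 A synthetic nanobody library was expressed on Saccharomyces cerevisiae BJ5465 by galactose induction for 36–48 hours. The library was stained for 1 hour at 4 °C with 10% biotinylated, detergent-solubilized Sf9 membrane reagent and enriched with streptavidin microbeads before FACS. Low and high (top ~1%) gates were set on anti-HA fluorescence for expression and streptavidin fluorescence for reagent binding, and each polyreactivity label reflects the gate of origin.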
row,Sequence,polyreactivity (PSR sort gate)
1,QVQIVESGGGLVQAGGSLRLSCAASGIIFDGYAMGWYRQAPGKERELVAGITIGDITYYADSVKGRFTISRDNAKITVYLQMNSLKPEDTAVYYCAADSYYYQTAYDYWGQGTQVTVSS,low polyreactivity
2,QVQLEESGGGIVQAGGTLRLTCAASGRIYATNAMGWSRQAPGKERELVATITRSAGRTYYADSVKGRFTISGDNAKNTVYLQMNSLKPEDTAVYYCAASYWDTEPGYREYDYWGQGTEVTVSS,low polyreactivity
3,QVQLVESGGGLVQAGGSLRLSCAASGRIFIYYTMGWYRQAPGKERELVASITWSGGRTYYADSVKGRFTISRDNAKNTVYLQMNSLKPEDTAVYYCNAGYSIGLVAYGYWGQGTQVTLSS,low polyreactivity
4,QVQLVESGGGLVQAGGSLRISCAASGLTFGRYAMGWYRQAPGKEMELVAAITGSGGRTYYADSVKGRFTISRDNAKNNVYLQINSLKQEDTAVYYCATEASPRGYAEYDYWGQGTQVTVSS,high polyreactivity
5,QVQLVESGGGLVQAGGSLRLSCAASGFTFAPNAMGWYRQAPGKERELVAAISSASSTYYADSVKGRFTISRDNAKNTVYLQMNSLKPEETAVYYCAAKSSTKQRKYYWGQGTQVTVSS,high polyreactivity
6,QVQLQESGGGLVQAGGSLRLSCAASGSSFEELDMGWYRQAPGKEREFVAAIGTGSTTYYADSVKGRLTISRDNAKNTVYLQMNSLKPEDTAVYYCAVDTWARAYLGYWGQGTQVTVSS,high polyreactivity
7,QVQLVESGGGLVQAGGSLRLSCAASGRIFTRYAMGWYRQAPGKERELVAVITRSGGSTYYADSVKGRFTISRDNAKNTVYLQMTSLKPEDTAVYYCAAKYYGEMYYWGQGTQVTVSS,low polyreactivity
8,QVQLVESGGGLVQAGGSLRLSCAASGRIFYYNAMGWYRQAPGKERELVASITWSGARTYYADSVKGRFTISRDNAKNTVYLQMNSLKPEDTAVYYCNAATSYYTYTYGYWGQGTQVTVSS,high polyreactivity
9,QVQLVESGGGLVQAGGSLRLSCAASGSIFTRNAMGWYRQAPGKERELVASISWRGGSTYYADSVKGRFTISRDNAKNTVYLQMNSLKPEDTAVYYCNRRAYRNGYGFRDGTWEYDYWGQGTQVTVSS,high polyreactivity
10,QVQLVESGGGLVQAGGSLRLSCAASGLIFNYYAMGWYRPAPGKERELVAAIYNGGSTYADSVKGRFTISRDNAKNTVYLQMNSLKPEDTAVYYCNTDDPDRDNDVKSIDYDYWGQGTQVTVSS,low polyreactivity
11,QFQLVESGGGLVQAGGSLRSSCAASGFIFREYAMGWYRQAPGKERELVAAISTSGGDTYYADSVKGRFTISRDNAKNTVYLQMNSLKPEDTAVYYCAAEYDGYWDSNRGNYWGQGTQVTVSS,low polyreactivity
12,QVQLVESGGGLVQAGGSLRLSCAASGRTFGYYAMGWYRPAPGKERELVASITGGGSTNYADSVKGRFTISRDNAKNTVYLQMNSLKPEDTAVYYCAAETITDDYYEYDYWGQGTQVTVSS,low polyreactivity
13,QVQLVESGGGLVQAGGSLRLSCAASGYIFGYYVMGWYRQAPGKERELVAAISGRGGRTYYADSVKGRFTISRDNAMNTVYLQMNSLKPEDTAVYYCAAADLPGTMYYWGQGTQVTVSS,high polyreactivity
14,QVQLVESGGGLVQAGGSHRLSCAASGLNFGDNTMGWYRQAPGKERELVAAISGDVITTYADSVKGRFTISRDNAKNTVYLQMNSLKPEDTAVYYCNAEVKRYYSGLPQYFAGLGYWGQGTQVTVSS,low polyreactivity
15,QVQLVESGGGLVQAGGSLRLSCAASGGTFSYYAMGWYRQAPGKGELVAAISSGGSTNYADSVKGRFTISRDNAKNTVYLQMNSLKPEDTAVYYCAARYRFWGPYNYWGQGTQVTVSS,high polyreactivity
16,QVQLVESGGGLVQAGGSLRLSCAASGFTIQRYAMGWYRQAPGKERELVAAITSGGSTYYADSVKGRFTISRDNAKNTVYLQMNSLKPEDTAVYYCATRAVWSSWGRRYDSWGQGTQVTVSS,high polyreactivity
17,QVQLVESVVGLVQAGGSLRLSCDASGRIFRYYAMGWYRQAPGKERELVARITSSGSTYYADSVKGRFTISRDNAKNTVYLQMNSLKPDDTAVYYCAADWYWGGIVDSWGQGTQVTVSS,high polyreactivity
18,QVQLVESGGGLVQAGGSLRLSCAASGSTFYYYTMGWYRQAPGKEREFVADITNRGGSTYYADSVKGRFTISRDNAKNTVYLQMNSLKPEDTAVYYCAARFSPWYWAGDYDYWGQGTQVTVSS,high polyreactivity
19,QVQLVESGGGLVQAGGSLRLSCAASGRIFYLYAMGWYRQAPGKERELVAGITSGGRTNYADSVKGRFTISRDNAKNTVYLQMNSLKPEDTAVYYCAAYYWGRYTGYYWGQGTQVTVSS,high polyreactivity
20,QVQLVESGGGLVQAGGSLRLSCAASGSTFPYYAMGWYRQAPGKERELVAAISGSGGTTYYADSVKGRFTISRDNAKNTVYLQMNILKPEDTAVYYCAAEASHYYYNAYPSYGGSDYWGQGTQVTVSS,low polyreactivity
21,QDQLVESGGGLVQAGCSLRLTCAASGSTFSYYAMGWYRQAPGKERELVADISWSGGSTYYADSVKGRFTISRDNAKNTVYLQMNSLKAAHTAVYYCAARGGSVLRYGKYYYWGQGTQVTVSS,low polyreactivity
22,QVQLVESGGGLVQAGGSLRLSCAASGFTFSVNAMGWYRQAPGKERELVADIDWSGGSTYYADSVKGRFTISRDNAKNTVYLQMNSLKPEDTAVYYCSADYYSPDSYVQGSSGEYWGQGTQVTVSS,low polyreactivity
23,QVQLVESGGGLVQAGGSLRLSCAASGSTFYYYAMGWYRQPPGKERELVASITTGGGSTYYADSVKGRFTISRDNAKNTVYLQMNSLKPEDTAVYYCAAALAYYYWWYDYWGQGTQVTVSS,low polyreactivity
24,QVQLVESGGGLVQAGGSLRLSCAASGRIFPYKDMGWSRQAHGKEMELVAGISYSGGSTYYADSVKGRFTISRDNAKNTVYLQMNSLKPEDTAVYYCARDYSRHKGDYWGQGTQVTVSS,low polyreactivity
25,QVQLVESGGGLVQAGGSLRLSCAASGSTFRHYAMGWYRQAPGKERELVAAISIRGGSTNYADSVKGRFTISRDNAKNTVYLQMNSLKPEDTAVYYCNACRLRYIFKSYDYWGQGTQVTVSS,high polyreactivity
26,QVQLVESGGGLVPAGGSLRLSWAASGFIFGYNVMGWYRQAPGKVRELVAAISRGGSTNYADSVKGRFTISRDNAKKTVSGQMTSLKPEATAVYDCAARRYRPAAFDSWGQGTQVTVSS,high polyreactivity
27,QVQLVESGGGLVQPGGSLRLSCAASGLTFDDNAKGWYRHAPGKERELVAAISKSGDGTYYADSVKGRFTISRDNAKNTVYLHMNSLKPEDTAVYYCNADAKYWRYVYWWFGDDYWGQGTQVTVSS,low polyreactivity
28,QVQLVESGGGLVQAGGSLRLSCAASGFTFNANAMGWYRQAPGKERELVSVITRSGGRTYYADSVKGGFTISRDTAKNTVYLQMNSLKPEDSAVYYCATEGPSRVYQGTDSASDYWGQGTQVTVSS,high polyreactivity
29,QVQLVESGGGLVQAGGSLRLSCAASGSTFWSNVMGWYRQAPGKESELVSAISYGGVTTSYADSVKGRFTISRDNAKNTVYLQKNSLKPEDTAVYYCATDYVGYYFYVSDYWGQGTQVTVSS,low polyreactivity
30,QVQLVESGGGLVQAGGSLRLSCAASGRIFGPNAMGWYRQAPGKETELVAVISTGGSTNYADSVKGRFTISRDNAKNTVYLQMNSLKPEDTAVYYCAAAYQYERGGLYNRFYYWGQGTQVTVSS,low polyreactivity

# — the nanobody polyreactivity screen of Harvey et al. (2022)
